We go through one molecule from US20240174754A1 (published 2024).

The target of test [1] is Human CD8+ T Cells. The test can be described thus: FACS binding to human CD8+ T cells; Donor KP63218.
The target of test [2] is Human CD8+ T Cells. Description: FACS binding to human CD8+ T cells; Donor KP63715.

B1: PA015 (antibody, V domains shown)
VH: QVTLRESGPALVKPTQTLTLTCTVSGFSLSTFGMGVGWIRQPPGKALEWLAHIWWDDDKWYELALKSRLTISKDTSKNQVVLTITNMDPVDTATYYCARVIYYGSRSAYYSMDYWGQGTTVTVSS
VL: DVVMTQTPLSLSVTPGQPASISCKSSQSIVHSNAHTYLEWYLQKPGQSPQLLIYKVSNRFSGVPDRFSGSGSGTDFTLKISRVEAEDVGVYYCFQGSHVPVTFGQGTKLEIKR
B1: the results for the EC50 in test [1] and in test [2] were 10.8 ng/mL and 3.18 ng/mL, respectively.
